Results as given in the DeepSol protein solubility set.

experiment: soluble on expression in E. coli; label from the status in PepcDB or PDB records

Row | Sequence | soluble on expression in E. coli
1 | MSLLNRLRAFRERGWREVDAPTYAQAWQRFGGSVATHPLVVEQLAEMAGIPVRYLGWESAGELVAAIPTWGRHLALSKDVLKRRGKKGLYDLGNAELILPVAGDARIALRHAGRYLSALHERNIVTLRPQTEQLAFARAPEDFSKKFRYNQRREVRLVEEAGGQVRQADSFAPAEFAAMYLELFQRRWGFPATGAERMAEVFERLRELLRGSVLLLNDQPIAVQVLYRAEAPGWLSVEYINGGVDPQTREFSPGSVLSYLNTQAAWEDARALGKPLRYSFGRADREYKDRWCHPSPVFQVEGHHHHHH | soluble
2 | MSLLNSPLAERIRPQNLSEYLSQNHLVGERGTLRQHILNGTIPSLILWGPPGTGKTTLANIIAQESKRPFYTLSAINSGVKDVREVIDKAKSAGGLFTAKNPILFIDEIHRFSKSQQDSLLAAVEKGWVTLIGATTENPSFEVIPALLSRCQVYVLDAFAKADLEQLLHRAMKIDEVLSIKDITIQETEALLRISGGDARKLLNIFELVINSQPSGPIVITNELVFEQVQSNPARYDKTGEQHYDIISAFIKSIRGSDPNAAVYWLARMIEGGEDLKFIARRMLILASEDIGNANPTALIMANNTFQAVSTIGYPESRIILSQCAIYLATSIKSNASYLAIGQAQQIVKQTGDLPVPLGLRNAPTKLMKELGYGQEYKYAHDHPGNFAQFDFLPTEISGTKIFNPGNNPREQAQREFLEKRWKEHYDYKPSKGEGHHHHHH | soluble
3 | MSLLWSRCTLFLFLCPIRVRGREHIPGKGPFVVMANHQGACDIFMMYGYLGIPFKWVLKEGIRKLPFVGYACRSAGFVFVDDTRPSSIAHTMDQAKRVLAEGTSIFIFPEGSRTRNGRLARFKKGGFLMADELGVPIIPVSLDGSYRVLPSGKLIPRPHRLTLTIHPPLSVADFGERPLCISEAVRETSRRIASVLPEEMAATQSKEGHHHHHH | not soluble
4 | MSLMKLTKLFLATAISLGVSSAVLAADYDLKFGMNAGTSSNEYKAAEMFAKEVKEKSQGKIEISLYPSSQLGDDRAMLKQLKDGSLDFTFAESARFQLFYPEAAVFALPYVISNYNVAQKALFDTEFGKDLIKKMDKDLGVTLLSQAYNGTRQTTSNRAINSIADMKGLKLRVPNAATNLAYAKYVGASPTPMAFSEVYLALQTNAVDGQENPLAAVQAQKFYEVQKFLAMTNHILNDQLYLVSNETYKELPEDLQKVVKDAAENAAKYHTKLFVDGEKDLVTFFEKQGVKITHPDLVPFKESMKPYYAEFVKQTGQKGESALKQIEAINPEGGSHHHHHH | soluble
5 | MSLMKNILAIQSHVVYGHAGNSAAEFPMRRLGANVWPLNTVQFSNHTQYGKWTGCVMPPSHLTEIVQGIAAIDKLHTCDAVLSGYLGSAEQGEHILGIVRQVKAANPQAKYFCDPVMGHPEKGCIVAPGVAEFHVRHGLPASDIIAPNLVELEILCEHAVNNVEEAVLAARELIAQGPQIVLVKHLARAGYSRDRFEMLLVTADEAWHISRPLVDFGMRQPVGVGDVTSGLLLVKLLQGATLQEALEHVTAAVYEIMVTTKAMQEYELQVVAAQDRIAKPEHYFSATKLEGGSHHHHHH | soluble
6 | MSLNDSILEPKHRGNVREIAAIDLGSNSFHMIVARIVNGSIQVLSRLKQKVKLAEGLDENAVLNQEAITRGVNCLALFAERLQGFPMENVNVVGTYTLRRAVNNDEFLRQAAKVFPYPINIISGQTEAKTIYAGVCHTQPEKGRKLVIDIGGGSTEMIIGDDFTPLMAESRHMGCVSFATQFFTDGIISPENFQRARQSAVNKIEDLGLEYRKLGWQSVLGSSGTIKTVAQVIATNLDPNGTITAERLNALIEQTLQAKHFTELNINGLNQDRVDVFVPGLAILSAVFDVFHIQQMRYSDGALREGVIYSLEKNFQVADIRASTAEGHHHHHH | soluble
7 | MSLNDYSRQNFLDLNLFRGLGEDPAYHPPVLTDRPRDWPLDRWAEAPRDLGYSDFSPYQWRGLRMLKDPDTQAVYHDMLWELRPRTIVELGVYNGGSLAWFRDLTKIMGIDCQVIGIDRDLSRCQIPASDMENITLHQGDCSDLTTFEHLREMAHPLIFIDDAHANTFNIMKWAVDHLLEEGDYFIIEDMIPYWYRYAPQLLSEYLGAFRDVLSMDMLYANASSQLDRGVLRRVAAKQEGHHHHHH | soluble
8 | MSLNEDWPTIAFLVPMDRNHEYGRNYVSSLRKAAEEHHVNAFVMNSNYDASVQASQMKIAIAKKVDGIVIWPALYGAEQPMLIQAQRAGIPVDISNSQPPEDLDTSLYHAFTGPNDQRIGELQGKELAKLLGSKGTYVYIGGTPGNAAAINRQIGLEREMANHPDVKLLGSQPGNFDKNQAQTAASALISRFGNQIDALVTPDDIIASGAAQALDAAGMAGQVKLLGHNYAPVARSLLENGSMSTTLFQSPCWDSTHALTTMMDVLAGKDVPPVSYMPLPVVTKDNLDEFTPNGCLPEGYSEPATNEGHHHHHH | soluble
9 | MSLNEELIKTGDFAKMCAVTKKALYVYEAKGLLKPAVVKDNGYRYYRLEQVDQVATIRLLEKLGSSLQEVGDFFALKDLNERQKYLGKQQEAVEREMAELGKIKSSLEFFDQRISDLKQTGLKKWRLRLARKNTWKSVLLGMVFREGHHHHHH | not soluble
10 | MSLNEETRKKKKRPSLTTLYEGTMKEITSNENRYIEFLNFASRVHKYSFDEQLLLYAQKQDVHMVATFDIWKKLGRFVKRGSTAALLFDYTTQQRKYVFDISETGGEPLQVFDWQLLDNDKNDLLRYWNTYEKQSGTLVNWEDGIHAKIASYQKPIGDQIHPFFVKDIEVVAAYIIYQRTNTLIPEDLLLDVQSVLQIGKRDNTLLEIQHFANLTAKEFLQDVERILNNELKKERVLYHDRIKFEDELSRREWQPASRDREGHHHHHH | not soluble
11 | MSLNELPRPDMMFGLKVVLAATDFSARSDRAVRRAAALARQSGARLVIAHVVDDDQPEHIVAVEVELAESALADAIREHTYLAGLQCTPLVLLGTPFDAIVRAAHQQGADLCVVGSHRRAFLRDIFAGTTAERVIRNSTVPVLMANLDPALPYAKSLAPVDLTDCSAQALETARQLGLLQRTKLIVMHVYDAAAAGMLNYAGVDKTSLDDYLVDTRTDAVRDLVRFLEPLRLDDVDYSTVVKEGAGPATDIIEAATELRPDLVVIGTHARRGAVRLLLSSVTEEVLRRLQRDILVVPVRDAGSEGHHHHHH | soluble
12 | MSLNEQKAQQLLMFFREQAEKPLSVNELEEALNLEDAQEFKELVQVLNEMEEKGLLVRTRSNRYGVPEKMNLLRGVVQGHAKGFAFVIPEEEGHSDVYVSHVDLESAMNGDRVIVRLHPHSTGTRPEGKVIRILERGVSEVIGTYVDHQTYGLVVADDKRIPNDILIVNPEAQGLVDGHKVIVKITKYPEGRMSAEGEVISILGHKNDPGMDILSIIYKYGIPQAFPEEVLQQAQNIPDEIDAGEIKNRRDLRDEPLVTIDGADAKDLDDAVHVSRLPNGNFKLGVHIADVSYYVKEKSPIDLEAAERGTSVYLVDRVIPMIPHRLSNGICSLNPQVDRLTLSCEMEITRDGQVVNHEIFQSVIRTNERMTYHDVNKILVEKEEELRNRYELLVPMFEDMEELAAILRKKRFGRGAIDFDFKEAKVLVDEEGKPSDVVIRERGVAEKLIEEFMLAANETVAEHFHWLKLPFMYRIHEDPDSEKLGRFLEFITNFGYVVRGTANTVHPRALQKLLEEVRGEPEEQVISTVMLRSMQQAKYDPTSLGHFGLSTEFYTHFTSPIRRYPDLIVHRLIREYLIKGNVDEETQEKWRERLPEIARHCSEMERRAVDAERETDDVKKAQFMEDKIGETFTGIISGVTNFGIFVELENTIEGLVHVSYLTDDYYRYDEKHYAMIGERSGNVFRIGDEIEVRVINVNVEEASIDFEIVGMKPRKQRPDKSRPKVIEGGKRKKKENRGALALDGSKPKKKKKKKAFYENAPSAKRKKGKKRKREGHHHHHH | soluble
13 | MSLNESEEKNSNSTYSFFFKNLSVTGFYEENCLFMTVKELFDNSIDALCNNKGDENIDEEGQGTQEKKIEIEIKEYGINSSFYEIICRDNGEGIEVKDLEKISEMFLTSKEKCITSGKFGIGLKTILLYSFKTAYGFLHIKIKVKKNKIWDFILVLDKNLNHTFVQNFKEYIDDKWEWTIEISVILKINNNYISDKKIHSYIKLFLLWKKNITVKYIHNPNGEQSIYTYSSHSDTSEENILSMLANNSINMIFKKDFLTSYNYDVNMYVNVRKSEKIIPYEHGHNIGFLFLIRYVNSMPLLRTSSSDCSITVDFRNFLKYYGPQFGIELPTIESRDEMILEELALPSCFDDLNKVANIFPVKRSEEGHHHHHH | soluble
14 | MSLNFDSLLLDIDGTLILKGQPLPGAAEALSFARAQGLRLQLLTNTTAKMPEALAQELCQAGIEVVPDEIQTATTACVGYLQQHAQLKCHLLVPDSIRAAFNGILTDDTNPDVVVISDIGEAFDYATLNRCFRMLRGGARLIALQKNLFWFDRDGERLDCGAFIVGLEAAAQVQALVMGKPSPMFFEAALRKLDTCASRTLVVGDDVLTDCAGAKAVGASSLLVRTGKYDLALFDAHRHNVGAVIDGIADFPRWWASGNTADRHDEGHHHHHH | soluble
15 | MSLNFPGSSSLLIVGASTRAAACSAVRAGFQPVCADQFADRDLRAVSEVVIKIDEHCHWLEEILKREPQNWIYTGALENRPEVINAINQRHTLLGNAEESLKKVRDPFFLQDMLVDQPIAISPCLPVDTQTPPRELWLRKPRLSAAGQGISFADSHTTDPTDSTQYYLQQFQPGIPLSALYLACDDCCVLIGTAVQFIGNRALHATGFQFCGGMTLPSMPPEWRHALGKLGHNIARGCHLRGLFGCDLIWNPDGQPGLWLTEVNPRYTALTELFELQYCLPLLRWHFAACRSCDASSAVAGTLADELIQLLKTKEKRTLSTVSKGIMYAPTDLTTPDLPWESSPRQVAWQIPTIADVPDRGTRIPAGTPVCTLYGTGDDQGECLLSMADQILRCQGQIQPELPRDLSRNEVRNMLWPRKESEKLNFSGFFSSRNVSGSFLEDEGHHHHHH | soluble
16 | MSLNILDVMKIPAFENANLIAGKAGGEREVQHVNMMDAPDIVDFLHKNELLVTTAYHLKDHPHQLSELIRQMAKRGCAGLGIKTKRYLEDIPKEIIELADSYAFPIIELPEHIRLGDIVNATLSHILDMRSNEGHHHHHH | soluble
17 | MSLNISNVLFLLHQKFPDPLPDNPICTREETKLAGHLVNILKLAVDHDIDVEERDEVADETFSDWDSIEFEPNDGVIFSSPTELVFGGRVVTREEANTALDYYRSAKAGKRTLEAMRNRFRWITGRHDMDKLKLYEKDRDNFKESRRNLLKFLGERLYEEVKGRLDSGICLHDRDLKMIALDINKKETHVENFKACQTWITNWKRSYNIVSRKITKFVTRRYVRNKAATLQSAKDFVQGCRMDISSYGPEMIFNADQCGIQKELFGARSLAYLGEKSVERIVQSLSSLTHSFTFLPMIFMNGTLGPKAYMKIAEPTGHFPPSRPIPVCSNLEVHAGKSHIMTKDDMRVWLRNCVAHQQCPKKMLMIVDSWTSFKDHATIQSCMQNGVDLTIRNIPPGTTSLIQPLDVHFNGPWKTLIKNFTSYVMSFCPDYIIANRNNTIMMTSLLYHQVSAALFEPFLKYSWNKAGYTDSHDEFVTPADYCFGDVGEEECGFGGCSEFSFIRCARCNCQICFEHFVVDDQHFCPCP | not soluble
18 | MSLNKFVDREGSVVAVYAAKSKAGCSAPDVEKVNQDAFCLVEKYGDSPNLSWFSVMDGHGLNGHLVSDIVRQILHKNVQECPEFNRDIKQALQKGFFRTNCELFQPGIDITMSGTTCVACVFHGSTLYSANVGDSRAIMGRSNGKGGWTSLSLTHDHKPDRPDEEKRILAADGRVGALKGPNGEALGPARVWRKDCDAPGLAMSRSLGDSLAASVGVIDDFIVIASDGLWEFMTNEEVTQIVSRFLDSRDPLGACDGLIEEANRRWRLEDDVIDDTTVVVIFLDVGRKEGHHHHHH | not soluble
19 | MSLNKIDMPVLNVKMVPVEKIKSNSYNPNHVAGPEMELLELSILKDGYTQPIVCYCDDKKDEYIIIDGFHRYLIGKSKLDLKELPVVVIDKPLEQRMSSTIRHNRARGKHEIDKMSELVLLLVNEGWDDHKIGKELGMEKEEVLRLKQVTGLKSAFLNHEFSESWDEFVKKNYPKQKDEEGGSHHHHHH | soluble
